Two molecules from US20240059784A1 (Eli Lilly, published 2024) can be followed below.

One test deals with T1, human TfR (cell-bound) (human, UniProt P02786 1-760).
T1 construct: Endogenous receptor on hCMEC-D3 cells (stated); also called hTFR; human transferrin receptor on hCMEC-D3 cells
Description: flow cytometry on hCMEC-D3 cells (endogenous human TfR), on ice, PE-labeled secondary. The method, then: (§1) Human endothelial line hCMEC-D3 (EMD Millipore SC066), endogenously expressing human TfR and MDCK cell line (ATCC CCL-34), engineered to express cynomolgus TfR were utilized to evaluate antibody/protein binding to cell-bound TfR. Cells were grown and maintained at submaximal confluence and detached from cultureware using Accutase cell detachment solution, washed, and allocated at 50000 cells per well for assessment of binding. Cells were treated with a viability stain then subsequently incubated with titrated concentrations of TfR binding proteins on ice. Cells were washed and binding of test antibodies or proteins was detected using a PE-labeled secondary reagent. Cells were then washed and read on the same day using a BioRad ZE5 cytometer. Analysis was performed post-acquisition in FlowJo, analyzing fluorescence of single, viable, non-debris events. EC50 values were derived by plotting geometric median PE intensity values across a given sample titration and fitting a sigmoidal (4PL) response curve in GraphPad Prism 8.3.0.
Background: In flow cytometry, cells or beads pass a laser one at a time.

Test [1] deals with T2, cynomolgus TfR (on MDCK cells) (cynomolgus, UniProt H9EXL1 1-760 (rhesus entry)).
T2 construct: whole, on cells; also called Cyno MDCK
Description: flow cytometry on MDCK cells engineered to express cynomolgus TfR, on ice, PE-labeled secondary. The method, then:
as §1

Test [2] has as its target T3, human TfR ECD (His-tagged) (human, UniProt P02786 89-760).
T3 construct: also called hTfR-ECD-6His; his-tagged hTfR-ECD
Description: SPR (Biacore 8K), 37 C; TfR ECD amine-coupled to CM4 chip, TBP as analyte; multi-cycle kinetics, 2-state fit; n = 3. The method, then: (§2) Target human and cynomolgous TfR ECD's were immobilized on a CM4 chip (Cytiva P/N 29104989) using standard NHS-EDC amine coupling. The TfR binding proteins were prepared at a final concentration of 0.3, 0.1, 0.033, 0.01, 0.0033, 0.001, 0.00033, 0.0001 μM respectively by dilution of stock solution into running buffer.
(§3) Binding analysis was performed in a multi-cycle kinetics manner. Each analysis cycle consists of (1) injection of the lowest to highest concentration proteins over all Fc at 50 μL/min for 140 seconds followed by return to buffer flow for 400 seconds to monitor dissociation phase; (2) regeneration of chip surfaces with injection of 3M magnesium chloride, for 30 seconds at 100 μL/min over all cells; and (3) equilibration of chip surfaces with a 50 μL (30-sec) injection of HBS-EP+. Data were processed using standard double-referencing and fit to a 2-state binding model using Biacore 8K Evaluation software, to determine the association rate (kₒₙ, M⁻¹s⁻¹ units), dissociation rate (koff, s⁻¹ units), and Rₘₐₓ (RU units). The equilibrium dissociation constant (KD) is calculated from the relationship KD=koff/kₒₙ, and is in molar units.

Another test has as its target T4, cynomolgus TfR ECD (cynomolgus).
T4 construct: extracellular domain; amine-coupled in the 37 C assay; also called Cyno TfR; His-tagged cynomolgus TfR ECD
The description is as above. The method, then: as §2, §3

Test [3] concerns the target T3, human TfR ECD (His-tagged). Description: SPR (Biacore 8K), 37 C; TfR ECD amine-coupled to CM4 chip, TBP as analyte; multi-cycle kinetics, 2-state fit; n = 3; conjugated to MAPT siRNA (dsRNA No. 39 in Table 11b). Here is the method:
as §2, §3

As usually defined, the EC50 is the concentration that produces a half-maximal response. Low readings indicate a more potent agent, high ones a less potent agent. A word on the Kd: it is the free concentration of one partner at which half of the binding sites on the other are occupied at equilibrium, for simple one-to-one binding. A high value points to lower affinity.

B1: TBP14-MAPT siRNA (dsRNA No. 38 in Table 11b) (antibody)
heavy: EVQLVESGGGLVKPGGSLRLSCVASGFTFSSYSMNWVRQAPGKGLEWVSSISSSSSYIYYADSVKGRFTISRDNAKNSLYLQMNSLRAEDTAVYYCARRHGYSNSDAFDNWGQGTLVTVSSASTKGPSVFPLAPCSRSTSESTAALGCLVKDYFPEPVTVSWNSGALTSGVHTFPAVLQSSGLYSLSSVVTVPSSSLGTKTYTCNVDHKPSNTKVDKRVESKYGPPCPPCPAPEAAGGPSVFLFPPKPKDTLMISRTPEVTCVVVDVSQEDPEVQFNWYVDGVEVHNAKTKPREEQFNSTYRVVSVLTVLHQDWLNGKEYKCKVSNKGLPSSIEKTISKAKGQPREPQVSTLPPSQEEMTKNQVSLMCLVYGFYPSDICVEWESNGQPENNYKTTPPVLDSDGSFFLYSVLTVDKSRWQEGNVFSCSVMHEALHNHYTQKSLSLSLG
light: DIQMTQSPSAMSASVGDRVTITCRASQGISHYLVWFQQKPGKVPKRLIYAASSLQSGVPSRFSGSGSGTEFTLTISSLQPEDFATYYCLQHNSYPWTFGQGTKVEIKRTVAAPSVFIFPPSDEQLKSGTASVVCLLNNFYPREAKVQWKVDNALQSGNSQESVTEQDSKDSTYSLSSTLTLSKADYEKHKVYACEVTHQGLSSPVTKSFNRGEC
chain: ESKYGPPCPPCPAPEAAGGPSVFLFPPKPKDTLMISRTPEVTCVVVDVSQEDPEVQFNWYVDGVEVHNAKTKPREEQFNSTYRVVSVLTVLHQDWLNGKEYKCKVSNKGLPSSIEKTISKAKGQPREPQVYTLPPSQGDMTKNQVQLTCLVKGFYPSDICVEWESNGQPENNYKTTPPVLDSDGSFFLASRLTVDKSRWQEGNVFSCSVMHEALHNHYTQKSLSLSLG
modifications: MAPT siRNA (dsRNA No. 38) conjugated through a linker at the engineered cysteine (A378C, EU numbering, by the name in Table 6b)
notes: Protein-siRNA conjugate of TBP14; also called TBP14-MAPT siRNA conjugate
B1: the EC50 with human TfR (cell-bound) is 764 nM; in test [1] it was 453 nM. Also, the Kd in test [2] is 258 nM; with cynomolgus TfR ECD, 448 nM.

B2: TBP15-MAPT siRNA (dsRNA No. 39 in Table 11b) (antibody)
heavy: EVQLVESGGGLVKPGGSLRLSCVASGFTFSSYSMNWVRQAPGKGLEWVSSISSSSSYIYYADSVKGRFTISRDNAKNSLYLQMNSLRAEDTAVYYCARRHGYSNSDAFDNWGQGTLVTVSSASTKGPCVFPLAPCSRSTSESTAALGCLVKDYFPEPVTVSWNSGALTSGVHTFPAVLQSSGLYSLSSVVTVPSSSLGTKTYTCNVDHKPSNTKVDKRVESKYGPPCPPCPAPEAAGGPSVFLFPPKPKDTLMISRTPEVTCVVVDVSQEDPEVQFNWYVDGVEVHNAKTKPREEQFNSTYRVVSVLTVLHQDWLNGKEYKCKVSNKGLPSSIEKTISKAKGQPREPQVSTLPPSQEEMTKNQVSLMCLVYGFYPSDIAVEWESNGQPENNYKTTPPVLDSDGSFFLYSVLTVDKSRWQEGNVFSCSVMHEALHNHYTQKSLSLSLG
light: DIQMTQSPSAMSASVGDRVTITCRASQGISHYLVWFQQKPGKVPKRLIYAASSLQSGVPSRFSGSGSGTEFTLTISSLQPEDFATYYCLQHNSYPWTFGQGTKVEIKRTVAAPSVFIFPPSDEQLKSGTASVVCLLNNFYPREAKVQWKVDNALQSGNSQESVTEQDSKDSTYSLSSTLTLSKADYEKHKVYACEVTHQGLSSPVTKSFNRGEC
chain: ESKYGPPCPPCPAPEAAGGPSVFLFPPKPKDTLMISRTPEVTCVVVDVSQEDPEVQFNWYVDGVEVHNAKTKPREEQFNSTYRVVSVLTVLHQDWLNGKEYKCKVSNKGLPSSIEKTISKAKGQPREPQVYTLPPSQGDMTKNQVQLTCLVKGFYPSDIAVEWESNGQPENNYKTTPPVLDSDGSFFLASRLTVDKSRWQEGNVFSCSVMHEALHNHYTQKSLSLSLG
modifications: MAPT siRNA (dsRNA No. 39) conjugated through a linker at the engineered cysteine (S124C, EU numbering, by the name in Table 6b)
notes: Protein-siRNA conjugate of TBP15
With B2, the values for the EC50 (with human TfR (cell-bound); in test [1]) were 75.6 nM and 57.1 nM, respectively. The Kd in the test with cynomolgus TfR ECD worked out at 199 nM; in test [3] it was 213 nM.
